Assay results from PMC9628480, “Discovery and structural characterization of chicoric acid as a SARS-CoV-2 nucleocapsid protein ligand and RNA binding disruptor”.

Target: SARS-CoV-2 nucleocapsid (N) protein, full-length (SARS-CoV-2 (protein amplified from …, UniProt A0A6B9VLF5 1-419))
Assay: fluorescence polarization
Conditions: protein: recombinant; tags: 6xHis (pET28a-TEV), not cleaved; chain copies: 2; label: 5'-FITC; hairpin

CACUCACUGUCAAAAAAGAUGGUAGAGU (structured_RNA) [RNA2 (UUUUUU to AAAAAA)]
Kd: 498 ± 43.2 nM
